Values belong to the binder of their own block, whether it stands above or below them.
Assays:
[1] = molecular target: T1, human PD-1 on the cell surface (human, UniProt Q15116 25-288); assay: flow cytometry, 293T-hPD-1 cells, batch FACS#1
T1 construct: whole, on cells; also called cell surface PD-1
Method: After centrifugation at 300 g for 5 minutes, the supernatant was discarded. The antibodies were serially diluted 3-fold with FACS buffer to obtain two gradient series solution FACS #1 and FACS #2, with the starting concentration of 200 nM (Table 5, FACS #1) or 100 nM (Table 5, FACS #2, FIG. 2), respectively. Then 100 μL/well was added to a 96-well plate in triplicate, mixed, and incubated at 4° C. for 60 min. The plate was centrifuged and washed three times with FACS buffer. 100 μL/well of 1:800 diluted AF647-anti-hIgG(H+L) (Jackson, Catalog No.: 109-605-003) was added and incubated at 4° C. for 50 minutes. After washing the plate three times with FACS buffer, 100 μL/well of FACS buffer was added to resuspend the cells, and the fluorescence signal was detected on a flow cytometer (BECKMAN COULTER cytoFLEX). The binding activity was fitted using a four-parameter model to calculate the EC₅₀ value of each antibody binding to PD-1.

[2] = molecular target: T2, human PD-1 protein (Acro, Catalog No. PD1-H5221) (human, UniProt Q15116 25-167); assay: ELISA, plate coated with human PD-1 protein
T2 construct: Bought protein; also called human PD1-his; not shown: his tag

[3] = molecular target: T3, human CTLA-4 on the cell surface (human, UniProt P16410 36-223); assay: flow cytometry, CHO-hCTLA-4 cells, batch FACS#3
T3 construct: whole, on cells; also called CHO-hCTLA-4 cells; CHOK1-hCTLA4 cells

[4] = molecular target: T4, hPD1-mFc (Acro, Catalog No. PD1-H5255) (human, UniProt Q15116 25-167); assay: flow cytometry: antibody titrated on CHOK1-hCTLA4 cells, then mixture of hPD1-mFc and biotin-hVEGF165; AF647 anti-mIgG signal
T4 construct: Bought protein; also called human PD-1 mouse Fc fusion; not shown: mouse Fc (mFc)
Method: CHOK1-hCTLA4 cells were obtained by trypsin digestion, washed twice with PBS containing 2% FBS (FACS buffer), and the cell density was adjusted to about 8×10⁵ cells/ml. 200 μL/well of the cells were added to a 96-well U-bottom plate. After centrifugation at 300 g for 5 minutes, the supernatant was discarded and 100 μL of antibody solution serially diluted with FACS buffer was added in triplicate (with starting concentration of 200 nM, 3-fold serial dilution, and the same volume of FACS buffer was used as a negative control). Mixed well and incubated at 4° C. for 60 min. After washing the plate three times with FACS buffer, a mixture consisting of 1 μg/mL hPD1-mFc (Acro, Catalog No.: PD1-H5255) and 1 μg/mL Biotin-hVEGF165 in a 1:1 volume ratio was added to each well at 100 μL/well to detect the simultaneously binding activity of the trispecific antibodies to VEGF and PD-1 after binding to cell surface CTLA-4. […] After washing the plate three times with FACS buffer, 100 μL/well of PBS solution was added to resuspend the cells, and the fluorescence signal was detected on a flow cytometer. The binding activity was fitted using a four-parameter model, and the EC₅₀ value of each antibody was calculated.

[5] = molecular target: human PD-1 protein (Acro, PD1-H5257) (human, UniProt Q15116 25-167); assay: competitive ELISA, PD-1 coated, biotin-PD-L1 as labelled ligand
Chain of human PD-1 protein (Acro, PD1-H5257) (Q15116 25-167 limits assumed): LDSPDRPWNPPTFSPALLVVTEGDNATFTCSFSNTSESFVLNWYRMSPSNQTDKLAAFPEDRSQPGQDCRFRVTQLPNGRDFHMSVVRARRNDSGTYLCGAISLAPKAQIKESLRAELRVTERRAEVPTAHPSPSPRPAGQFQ

T3 sequence (P16410 36-223): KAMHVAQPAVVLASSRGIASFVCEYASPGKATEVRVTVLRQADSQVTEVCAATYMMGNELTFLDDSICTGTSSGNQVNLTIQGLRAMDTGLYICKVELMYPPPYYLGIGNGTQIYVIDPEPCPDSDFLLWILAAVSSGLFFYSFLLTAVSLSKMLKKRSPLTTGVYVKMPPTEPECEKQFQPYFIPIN
T1 sequence (Q15116 25-288): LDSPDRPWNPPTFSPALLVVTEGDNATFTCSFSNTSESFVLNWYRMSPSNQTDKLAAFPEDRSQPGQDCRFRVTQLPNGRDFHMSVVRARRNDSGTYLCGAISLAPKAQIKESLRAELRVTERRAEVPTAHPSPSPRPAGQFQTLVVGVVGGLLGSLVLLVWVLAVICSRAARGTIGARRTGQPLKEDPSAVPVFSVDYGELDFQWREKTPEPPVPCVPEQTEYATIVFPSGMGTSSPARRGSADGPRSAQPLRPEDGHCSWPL
T2 sequence (Q15116 25-167 limits assumed): as the sequence (Q15116 25-167 limits assumed) above
T4 sequence (Q15116 25-167 limits assumed): as above

EC50 [1]: 3.53 nM | EC50 [2]: 0.082 nM | EC50 [3]: 2.8 nM | EC50 [4]: 1.53 nM | IC50 [5]: 0.923 nM
B1: HC010-F9 (trispecific antibody, human IgG4 S228P, kappa)
heavy: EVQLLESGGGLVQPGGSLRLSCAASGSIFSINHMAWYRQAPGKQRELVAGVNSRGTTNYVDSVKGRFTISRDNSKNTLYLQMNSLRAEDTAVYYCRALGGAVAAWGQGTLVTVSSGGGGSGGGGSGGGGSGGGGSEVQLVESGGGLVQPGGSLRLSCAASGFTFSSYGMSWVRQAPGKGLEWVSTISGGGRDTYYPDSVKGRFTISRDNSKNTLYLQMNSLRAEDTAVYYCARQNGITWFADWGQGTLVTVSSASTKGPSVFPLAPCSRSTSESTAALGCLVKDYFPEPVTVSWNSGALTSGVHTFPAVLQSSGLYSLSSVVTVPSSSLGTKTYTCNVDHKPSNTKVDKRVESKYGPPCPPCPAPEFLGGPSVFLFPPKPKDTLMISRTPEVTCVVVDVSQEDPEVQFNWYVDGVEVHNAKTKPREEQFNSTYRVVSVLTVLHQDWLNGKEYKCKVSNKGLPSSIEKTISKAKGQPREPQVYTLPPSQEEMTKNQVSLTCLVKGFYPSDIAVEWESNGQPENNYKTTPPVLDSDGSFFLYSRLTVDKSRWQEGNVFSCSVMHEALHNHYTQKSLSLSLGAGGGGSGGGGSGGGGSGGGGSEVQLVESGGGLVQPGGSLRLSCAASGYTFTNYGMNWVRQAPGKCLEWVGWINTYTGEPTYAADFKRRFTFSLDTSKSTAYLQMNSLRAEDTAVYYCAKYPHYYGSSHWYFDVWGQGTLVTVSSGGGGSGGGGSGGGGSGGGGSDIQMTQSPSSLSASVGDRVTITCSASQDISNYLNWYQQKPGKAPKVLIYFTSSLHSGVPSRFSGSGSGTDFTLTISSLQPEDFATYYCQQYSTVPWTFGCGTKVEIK
light: DIQMTQSPSSLSASVGDRVTITCRASESVDNYGISFMNWYQQKPGKAPKLLIYAASNQGSGVPSRFSGSGSGTDFTLTISSLQPEDFATYYCQQSKEVPWTFGGGTKVEIKRTVAAPSVFIFPPSDEQLKSGTASVVCLLNNFYPREAKVQWKVDNALQSGNSQESVTEQDSKDSTYSLSSTLTLSKADYEKHKVYACEVTHQGLSSPVTKSFNRGEC
notes: light: CQ1-3/1-11 VL-kappa; also called H010-F9

EC50 [1]: 5.77 nM | EC50 [2]: 0.093 nM | EC50 [3]: 6.19 nM | EC50 [4]: 2.73 nM | IC50 [5]: 0.837 nM
B2: HC010-F10 (trispecific antibody, human IgG4 S228P, kappa)
heavy: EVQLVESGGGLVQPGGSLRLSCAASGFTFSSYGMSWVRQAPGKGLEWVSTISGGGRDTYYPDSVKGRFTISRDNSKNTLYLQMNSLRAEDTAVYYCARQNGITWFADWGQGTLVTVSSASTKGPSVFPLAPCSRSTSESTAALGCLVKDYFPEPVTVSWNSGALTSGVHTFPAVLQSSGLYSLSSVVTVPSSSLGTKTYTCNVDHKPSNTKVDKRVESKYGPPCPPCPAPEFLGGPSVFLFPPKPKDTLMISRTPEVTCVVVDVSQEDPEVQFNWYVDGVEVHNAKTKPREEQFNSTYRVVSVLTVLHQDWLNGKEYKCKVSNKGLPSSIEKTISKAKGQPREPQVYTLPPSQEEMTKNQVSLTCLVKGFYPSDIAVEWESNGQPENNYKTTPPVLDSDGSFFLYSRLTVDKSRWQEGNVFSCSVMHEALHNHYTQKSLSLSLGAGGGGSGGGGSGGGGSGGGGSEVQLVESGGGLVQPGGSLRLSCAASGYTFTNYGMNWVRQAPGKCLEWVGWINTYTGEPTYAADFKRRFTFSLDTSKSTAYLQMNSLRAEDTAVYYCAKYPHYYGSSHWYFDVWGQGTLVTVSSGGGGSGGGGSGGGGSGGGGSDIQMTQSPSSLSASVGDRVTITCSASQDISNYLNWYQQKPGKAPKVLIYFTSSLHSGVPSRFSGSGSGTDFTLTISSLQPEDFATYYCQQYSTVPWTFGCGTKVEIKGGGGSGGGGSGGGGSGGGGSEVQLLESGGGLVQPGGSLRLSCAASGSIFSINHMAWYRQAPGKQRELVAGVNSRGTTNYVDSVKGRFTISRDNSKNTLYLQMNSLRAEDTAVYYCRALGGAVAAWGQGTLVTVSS
light: B1 light
notes: light: CQ1-3/1-11 VL-kappa; also called H010-F10
